According to the supplement of paper PMC7877785:
± gives the uncertainty stated by the source.

Assay: self-splicing fitness, log relative to wild type (ln ratio); higher = more splicing; Tetrahymena group I intron in knt gene, E. coli kanamycin selection, DiMSum; sequences stand for … in CUCUCU…GGAGGGAAAAGUUAUCAGGCAUGCACCUGGUAGCUAGUCUUUAAACCAAUAGAUUGCAUCGGUUUAAAAGGCAAGACCGUCAAAUUGCGGGAAAGGGGUCAACAGCCGUUCAGUACCAAGUCUCAGGGGAAACUUUGAGAUGGCCUUGCAAAGGGUAUGGUAAUAAGCUGACGGACAUGGUCCUAACCACGCAGCCAAGUCCUAAGUCAACAGAUCUUCUGUUGAUAUGGAUGCAGUUCACAGACUAAAUGUCGGUCGGGGAAGAUGUAUUCUUCUCAUAAGAUAUAGUCGGACCUCUCCUUAAUGGGAGCUAGCGGAUGAAGUGAUGCAACACUGGAGCCGCUGGGAACUAAUUUGUAUGCGAAAGUAUAUUGAUUAGUUUUGGAGUACUCGUGGUCG
Procedure, shortened: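 Colonies from six replicate transformations of E. coli BL21(DE3) were pooled and amplicon-sequenced on an Illumina HiSeq 2500. The library placed an intron with all eight P1ex-region nucleotides randomised inside the knt kanamycin-resistance gene on pET-22b(+), and cells grew overnight at 37°C or 30°C on LB agar with or without 25 μg/mL kanamycin (plus 100 μg/mL carbenicillin, 50 μM IPTG, 0.2% rhamnose). Fitness is the DiMSum error-weighted combination of wild-type-normalised replicate fold changes, kanamycin versus none.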

| Sequence | self-splicing fitness (ln) (30 °C) | self-splicing fitness (ln) (37 °C) |
| --- | --- | --- |
| UUCCAGCAAUAUUACGUGCU | -4.4 ± 0.34 | -3.29 ± 0.29 |
| CUCAAGCAAUAUUACGACGU | -2.18 ± 0.098 | -1.54 ± 0.11 |
| CACCAGCAAUAUUACGUUGG | -4.24 ± 0.13 | -2.74 ± 0.13 |
| UCGGAGCAAUAUUACGACGA | -1.41 ± 0.14 | -1.32 ± 0.16 |
| AAGUAGCAAUAUUACGAUAU | -1.21 ± 0.066 | -0.506 ± 0.084 |
| CGACAGCAAUAUUACGACGA | -1.01 ± 0.12 | 0.0299 ± 0.14 |
| UAACAGCAAUAUUACGCCGA | -1.95 ± 0.11 | -0.415 ± 0.089 |
| CCGAAGCAAUAUUACGUUCU | -3.84 ± 0.26 | -3.37 ± 0.24 |
| CCCCAGCAAUAUUACGCCGC | -2.93 ± 0.31 | -2.26 ± 0.42 |
| UUGGAGCAAUAUUACGACUA | -1.58 ± 0.41 | – |
| CGGCAGCAAUAUUACGACAA | -1.99 ± 0.1 | -2.28 ± 0.18 |
| CUCCAGCAAUAUUACGCGCG | -3.29 ± 0.17 | -0.928 ± 0.15 |
| UUUCAGCAAUAUUACGAUGU | -2.13 ± 0.13 | -1.47 ± 0.15 |
| CUUUAGCAAUAUUACGUCAC | – | -0.481 ± 0.4 |
| ACAGAGCAAUAUUACGGAAA | -3.38 ± 0.36 | -2.81 ± 0.38 |
| CUUUAGCAAUAUUACGGGCA | -3.41 ± 0.26 | -2.67 ± 0.21 |
| UGUAAGCAAUAUUACGGUGC | -3.82 ± 0.35 | -2.13 ± 0.26 |
| AUCGAGCAAUAUUACGGCGU | -0.0628 ± 0.11 | -0.183 ± 0.11 |
| UGUCAGCAAUAUUACGAGGC | -1.97 ± 0.26 | -3.1 ± 0.32 |
| ACUCAGCAAUAUUACGGAUG | -1.36 ± 0.068 | -0.69 ± 0.098 |
| CGGAAGCAAUAUUACGGGUC | -3.78 ± 0.19 | -2.59 ± 0.21 |

| Sequence | self-splicing fitness (ln) (30 °C) | self-splicing fitness (ln) (37 °C) |
| --- | --- | --- |
| ACCUAGCAAUAUUACGAUUA | -2.05 ± 0.15 | -1.51 ± 0.12 |
| GUACAGCAAUAUUACGACUC | -0.243 ± 0.06 | 0.473 ± 0.068 |
| UUGUAGCAAUAUUACGCUUU | – | -2.81 ± 0.31 |
| UGCCAGCAAUAUUACGCUGA | -3.01 ± 0.19 | -2.21 ± 0.21 |
| GACUAGCAAUAUUACGGAUA | -1.4 ± 0.09 | -0.349 ± 0.09 |
| GACAAGCAAUAUUACGAAAA | -2.27 ± 0.24 | -2.22 ± 0.31 |
| CAAGAGCAAUAUUACGAGAC | -2.43 ± 0.37 | -1.93 ± 0.35 |
| UUCCAGCAAUAUUACGAUGA | -0.211 ± 0.067 | 0.0453 ± 0.072 |
| AUGAAGCAAUAUUACGAAGA | -1.9 ± 0.13 | -0.83 ± 0.16 |
| GAAUAGCAAUAUUACGACGU | -0.363 ± 0.11 | 0.265 ± 0.13 |
| AAUUAGCAAUAUUACGUCCG | -1.12 ± 0.18 | -0.444 ± 0.26 |
| CAUGAGCAAUAUUACGAGAA | -0.549 ± 0.29 | – |
| UUUAAGCAAUAUUACGCACA | -0.157 ± 0.068 | 0.181 ± 0.086 |
| AAUCAGCAAUAUUACGGUAC | -0.714 ± 0.082 | -0.852 ± 0.1 |
| GUCAAGCAAUAUUACGCAGG | -4.19 ± 0.36 | -2.3 ± 0.3 |
| UAAUAGCAAUAUUACGCAUU | -2.83 ± 0.21 | -2.15 ± 0.28 |
| GAGAAGCAAUAUUACGAUCG | -0.334 ± 0.094 | -0.068 ± 0.14 |
| CGUCAGCAAUAUUACGUCGG | -0.413 ± 0.042 | 0.115 ± 0.06 |
| AUAUAGCAAUAUUACGUCUG | -2.35 ± 0.1 | -0.0249 ± 0.12 |
| UGCCAGCAAUAUUACGAGCG | -0.919 ± 0.066 | -0.309 ± 0.079 |
| AAAUAGCAAUAUUACGCGUU | -2.16 ± 0.087 | -1.22 ± 0.092 |

| Sequence | self-splicing fitness (ln) (30 °C) | self-splicing fitness (ln) (37 °C) |
| --- | --- | --- |
| CGACAGCAAUAUUACGUUUC | -3.98 ± 0.24 | -2.23 ± 0.15 |
| GCCAAGCAAUAUUACGACUC | -0.25 ± 0.08 | 0.136 ± 0.098 |
| AUGCAGCAAUAUUACGCCGU | -1.25 ± 0.069 | -0.859 ± 0.083 |
| GCCAAGCAAUAUUACGCUCC | -0.474 ± 0.14 | 0.717 ± 0.17 |
| AGGGAGCAAUAUUACGAUUG | -3.9 ± 0.17 | -3.41 ± 0.25 |
| GGAUAGCAAUAUUACGUGUU | -3.31 ± 0.17 | -1.63 ± 0.14 |
| UCCGAGCAAUAUUACGUAUA | -3.79 ± 0.29 | -2.54 ± 0.24 |
| GCUUAGCAAUAUUACGGGGU | -2.56 ± 0.16 | -2.55 ± 0.21 |
| GCUUAGCAAUAUUACGGCGG | -3.5 ± 0.2 | -3.14 ± 0.26 |
| AUGCAGCAAUAUUACGCCUU | -0.919 ± 0.072 | -0.304 ± 0.095 |
| UAAGAGCAAUAUUACGAGGA | -3.37 ± 0.29 | -2.25 ± 0.35 |
| GACCAGCAAUAUUACGCGCC | -0.0376 ± 0.14 | -0.617 ± 0.18 |
| GGGGAGCAAUAUUACGGAAC | – | -2.95 ± 0.26 |
| UCUGAGCAAUAUUACGAUGU | -2.72 ± 0.15 | -0.718 ± 0.16 |
| CGACAGCAAUAUUACGGGAU | -3.98 ± 0.18 | -2.52 ± 0.19 |
| GGCUAGCAAUAUUACGCGUC | -2.06 ± 0.24 | 0.0137 ± 0.14 |
| UGCAAGCAAUAUUACGAUAA | -0.8 ± 0.1 | -0.087 ± 0.12 |
| AGCGAGCAAUAUUACGAUCC | – | -0.865 ± 0.49 |
| AAUGAGCAAUAUUACGAUUC | -3.1 ± 0.26 | -2.43 ± 0.26 |
| GCAUAGCAAUAUUACGCUGU | -3.06 ± 0.17 | -1.69 ± 0.23 |
